Source: patent US20120321668A1

Legend:
[1] = target: CD3 molecules of the CD3/TCR complex on mouse T cells (mouse) (UniProt A2KF29); assay: confocal fluorescence microscopy, NBD-peptide and labelled anti-CD3 antibody on mouse T cells
[2] = target: TLR2 TMD peptide labelled with Rho (TLR2-Rho); assay: FRET, gp41 TMD-NBD constant at 0.4 µM and TLR2-Rho added at 0.025-0.8 µM, 100 µM LUVs

gp41 TMD conjugated to NBD (gp41 transmembrane domain peptide, NBD-labelled)
co-localization percentage [1]: 58.8%
percent of energy transfer (FRET) [2]: > 60%
